Experimental data as given in US12366576B2, “Compositions, assays, and methods for direct modulation of fatty acid metabolism” (Dana-Farber Cancer Institute, Inc., priority 2016, dated 2025).
Bridge positions count the residues as written; N and C are the ends. Square brackets hold non-standard residues; d marks the D form. Ends that are not written are not given here. S5 = C=CCCC[C@](C)(N)C(=O)O

Tests used:
native VLCAD = biological target: T1, native VLCAD (Mus musculus, UniProt P50544); test: Biotinylated SAHB pulldown from MEF lysates, anti-VLCAD Western analysis; type: binding; conditions: for summary of binding properties: binding to VLCAD: pull-downs and ITC
T1 construct: As for native VLCAD from MEF lysates; endogenous in cells; host or cells: SV-40-transformed wild-type mouse embryonic fibroblasts (lysate)
T1 sequence (P50544 42-656): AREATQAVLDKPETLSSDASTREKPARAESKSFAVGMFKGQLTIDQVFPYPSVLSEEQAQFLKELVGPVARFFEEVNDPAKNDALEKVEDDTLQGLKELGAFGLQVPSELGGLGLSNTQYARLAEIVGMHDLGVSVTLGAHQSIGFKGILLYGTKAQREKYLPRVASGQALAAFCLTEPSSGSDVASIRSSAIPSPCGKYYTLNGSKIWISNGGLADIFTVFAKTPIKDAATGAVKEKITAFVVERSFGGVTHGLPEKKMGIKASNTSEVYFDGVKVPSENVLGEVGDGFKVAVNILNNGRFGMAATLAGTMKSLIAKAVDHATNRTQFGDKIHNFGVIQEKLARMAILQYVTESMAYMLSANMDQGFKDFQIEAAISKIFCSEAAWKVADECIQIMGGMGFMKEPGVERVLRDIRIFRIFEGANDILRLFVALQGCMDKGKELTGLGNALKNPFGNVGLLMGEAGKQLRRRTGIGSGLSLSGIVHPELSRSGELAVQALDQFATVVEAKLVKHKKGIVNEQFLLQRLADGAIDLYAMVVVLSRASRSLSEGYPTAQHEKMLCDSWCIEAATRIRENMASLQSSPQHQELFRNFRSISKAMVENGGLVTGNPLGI
Source text: To validate the MS result, the pulldowns were repeated and eluates run on a gel for anti-VLCAD Western blot analysis. […] All peptides faithfully recapitulated native BH3-binding propensities for endogenous MCL-1 protein (FIG. 8). The eluates were then probed for the other members of the acyl-CoA dehydrogenase family that manifest shorter fatty acid substrate specificities. MCL-1 SAHBD was able to pull down VLCAD, but not MCAD or SCAD (FIG. 9). Because the traditional MCL-1 staple location differs from that of the BIM, BID, and BAD SAHBs, it was important to confirm that the observed VLCAD binding specificity was due to BH3 sequence selectivity, not staple position. A BIM SAHB with the traditional MCL-1 staple (BIM SAHBF), and a MCL-1 stapled peptide with the traditional BIM staple (MCL-1 SAHBA), were generated. […] To confirm that the selective interaction between MCL-1 SAHBD and VLCAD is direct, recombinant VLCAD was generated and purified by size exclusion chromatography (FIGS. 11 and 12).
The binding determinants for the MCL-1 BH3/VLCAD interaction were investigated by generating a series of biotinylated MCL-1 SAHBD alanine point mutants (FIG. 18A) and performing streptavidin pull-downs from MEF lysates, followed by VLCAD and MCL-1 western analysis of the resulting eluates. […] Native alanines and residues not mutated are colored white. The dotted semicircles highlight the distinctive MCL-1 BH3 binding interfaces for VLCAD versus MCL-1 engagement, as defined by the differential sensitivities to alanine mutagenesis.
(§1) Wild-type MEFs were trypsinized, washed once with cold PBS, and lysed on ice with NP-40 lysis buffer (50 mM Tris, pH 7.4, 150 mM NaCl, 0.5% (v/v) NP-40, complete protease inhibitor pellet (Roche)) using 1 ml of lysis buffer for every 10 million cells lysed. Cellular debris was pelleted at 14,000 g for 10 min at 4° C., and the supernatant was quantified using the BCA Protein Assay Kit (Thermo Fisher Scientific). 2 mg of lysate per pulldown were then exposed to 50 μL of pre-equilibrated High Capacity Streptavidin Agarose beads (Thermo Fisher Scientific). The pre-cleared lysates were then incubated with 15 nmol biotinylated SAHBs (or vehicle, 1.5% (v/v) DMSO) overnight at 4° C., followed by addition of 50 μL of pre-equilibrated High Capacity Streptavidin Agarose beads for 2 hours at 4° C. The beads were then pelleted and washed with NP-40 lysis buffer three times before eluting the protein sample from the beads by heating at 70° C. for 10 min in SDS loading buffer. Samples were then subjected to electrophoresis and either Western analysis or Coomassie stain (SimplyBlue Safe Stain, Thermo Fisher Scientific). The antibodies used for Western analysis were the following: MCL-1 (Rockland 600-401-394; 1:1000 in 3% BSA), VLCAD (Thermo Fisher Scientific PA5-29959; 1:1000 in 1% milk+0.1% Tween-20), MCAD (Thermo Fisher Scientific PA5-27201; 1:1000 in 3% BSA), and SCAD (Abcam ab154823; 1:1000 in 3% BSA). Coomassie stained gels were then processed for proteomics analysis (see below). Biotinylated SAHB pulldowns of recombinant protein were performed as above incubating 5 nmol of SAHB with 10 pmol of rVLCAD in 500 μL total volume. Densitometry analyses were performed using ImageJ software.

endogenous MCL-1 = test: Biotinylated SAHB pulldown from MEF lysates, anti-MCL-1 Western analysis; type: binding, mouse; conditions: summary, pull-downs
endogenous MCL-1, sequence (P97287 152-308 limits assumed): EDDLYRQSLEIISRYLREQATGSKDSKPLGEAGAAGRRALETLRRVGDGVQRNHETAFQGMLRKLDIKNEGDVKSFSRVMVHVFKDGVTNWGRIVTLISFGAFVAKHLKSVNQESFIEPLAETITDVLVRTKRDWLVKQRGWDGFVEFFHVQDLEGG
Protocol: An exploratory proteomics analysis was conducted to identify proteins that interact with the MCL-1 BH3 domain helix. An extensive library of MCL-1 stapled BH3 peptides (FIG. 2) was generated to both identify novel protein interactors by mass spectrometry and then deploy the stapled peptide constructs as novel probes to dissect and pharmacologically modulate the identified protein interactors and associated signaling pathways. As an example, an N-terminally biotinylated stapled peptide designed based on the sequence of MCL-1's BH3 domain (Btn-MCL-1 SAHBD), or vehicle, was incubated with wild-type mouse embryonic fibroblast (MEF) lysates, followed by high stringency streptavidin capture. To validate the proteomics workflow and ensure that Btn-MCL-1 SAHBD could, in fact, engage protein interactors in a lysate, eluates were first run on a gel for anti-MCL-1 Western analysis. […] For mass spectrometry (MS) analysis, eluates were run on a reducing/denaturing gel followed by Coomassie staining (FIG. 4) and in-gel digestion was performed before injection on the instrument.
The binding determinants for the MCL-1 BH3/VLCAD interaction were investigated by generating a series of biotinylated MCL-1 SAHBD alanine point mutants (FIG. 18A) and performing streptavidin pull-downs from MEF lysates, followed by VLCAD and MCL-1 western analysis of the resulting eluates. […] Native alanines and residues not mutated are colored white.
as §1, with “The pre-cleared lysates were then incubated with 15 nmol biotinylated SAHBs (or vehicle, 1.5% (v/v) DMSO) overnight at 4° C., followed by addition of 50 μL of pre-equilibrated High Capacity Streptavidin Agarose beads for 2 hours at 4° C.” left out, “The antibodies used for Western analysis were the following: MCL-1 (Rockland 600-401-394; 1:1000 in 3% BSA), VLCAD (Thermo Fisher Scientific PA5-29959; 1:1000 in 1% milk+0.1% Tween-20), MCAD (Thermo Fisher Scientific PA5-27201; 1:1000 in 3% BSA), and SCAD (Abcam ab154823; 1:1000 in 3% BSA).” left out

Substance | summary of binding properties: binding to VLCAD (native VLCAD) | effect of alanine mutation on biotinylated MCL-1 SAHBD interaction with VLCAD (native VLCAD; pull-downs from MEF lysates) | summary of binding properties: binding to MCL-1 (endogenous MCL-1)
G217A: biotinylated MCL-1 SAHBD alanine point mutant G217A (RKALETLRRVADGV[S5]RNH[S5]TAF; staple 15-19; also: biotinylated, place not given here) | Binds |  | weakly or not
V216A: biotinylated MCL-1 SAHBD alanine point mutant V216A (RKALETLRRAGDGV[S5]RNH[S5]TAF; staple 15-19; also: biotinylated, place not given here) | Binds |  | weakly or not
K208A: biotinylated MCL-1 SAHBD alanine point mutant K208A (RAALETLRRVGDGV[S5]RNH[S5]TAF; staple 15-19; also: biotinylated, place not given here) | enhanced binding |  | diminished binding
L210A: biotinylated MCL-1 SAHBD alanine point mutant L210A (RKAAETLRRVGDGV[S5]RNH[S5]TAF; staple 15-19; also: biotinylated, place not given here) | weakly or not | uniquely disruptive | Binds
T226A: biotinylated MCL-1 SAHBD alanine point mutant T226A (RKALETLRRVGDGV[S5]RNH[S5]AAF; staple 15-19; also: biotinylated, place not given here) | diminished binding |  | diminished binding

The next lines start with results.

summary of binding properties: binding to VLCAD (native VLCAD) | effect of alanine mutation on biotinylated MCL-1 SAHBD interaction with VLCAD (native VLCAD; pull-downs from MEF lysates) | Substance | summary of binding properties: binding to MCL-1 (endogenous MCL-1)
Binds |  | G219A: biotinylated MCL-1 SAHBD alanine point mutant G219A (RKALETLRRVGDAV[S5]RNH[S5]TAF; staple 15-19; also: biotinylated, place not given here) | Binds
Binds |  | T212A: biotinylated MCL-1 SAHBD alanine point mutant T212A (RKALEALRRVGDGV[S5]RNH[S5]TAF; staple 15-19; also: biotinylated, place not given here) | weakly or not
Binds |  | E211A: biotinylated MCL-1 SAHBD alanine point mutant E211A (RKALATLRRVGDGV[S5]RNH[S5]TAF; staple 15-19; also: biotinylated, place not given here) | Binds
Does not bind |  | H224A: biotinylated MCL-1 SAHBD alanine point mutant H224A (RKALETLRRVGDGV[S5]RNA[S5]TAF; staple 15-19; also: biotinylated, place not given here) | Does not bind
